Measurements: PMC2267068, “Comparative Analysis of Metal Binding Characteristics of Copper Chaperone Proteins, Atx1 and ATOX1” (Bioinorganic Chemistry and Applications, 2004)
“And” between values parts separate entries of the source, which are not always exact repeats. Equal values may be shown once.

Assays:
[1] = target: T1, ATOX1 (human copper chaperone), wild type (human), O00244; test: cross-linking; DMS (spacer arm 11 A), Cd(II) + DTT; products on SDS-PAGE; settings: remark: other sources report otherwise
T1 chain: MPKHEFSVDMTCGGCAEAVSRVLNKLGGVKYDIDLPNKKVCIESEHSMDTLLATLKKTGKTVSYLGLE

[2] = target: T1, ATOX1 (human copper chaperone), wild …; test: cross-linking; EGS (spacer arm 16.1 A), Cd(II) + DTT; products on SDS-PAGE; settings: remark: other sources report otherwise
[3] = target: T1, ATOX1 (human copper chaperone), wild …; test: cross-linking; Hg(II) + DTT; DMS or EGS for ATOX1, EGS for Atx1; products on SDS-PAGE; settings: remark: other sources report otherwise
[4] = target: T1, ATOX1 (human copper chaperone), wild …; test: cross-linking; metal complexes + DTT (which metals not told), DMS or EGS; faint higher bands on SDS-PAGE; settings: remark: other sources report otherwise
[5] = target: T1, ATOX1 (human copper chaperone), wild …; test: SEC; Bio-Gel P-10 column (1.5 x 60 cm), 20 mM MES pH 6.0; reduced apoprotein (+DTT 3:1); 0.3, 0.5 and 0.3 mM ATOX1, C41S-ATOX1 and Atx1; size against myoglobin (18 kDa) and cytochrome C (12.5 kDa); settings: remark: other sources report otherwise
[6] = target: T1, ATOX1 (human copper chaperone), wild …; test: SEC; Bio-Gel P-10 column (1.5 x 60 cm), 20 mM MES pH 6.0; Cd(II) complex (metal 1:1, DTT 3:1); 0.3, 0.5 and 0.3 mM ATOX1, C41S-ATOX1 and Atx1; size against myoglobin (18 kDa) and cytochrome C (12.5 kDa); settings: remark: other sources report otherwise
[7] = target: the molecule itself; test: SEC; Bio-Gel P-10 column (1.5 x 60 cm), 20 mM MES pH 6.0; reduced apoprotein (+DTT 3:1); 0.3, 0.5 and 0.3 mM ATOX1, C41S-ATOX1 and Atx1; size against myoglobin (18 kDa) and cytochrome C (12.5 kDa)
[8] = target: T2, Atx1 (yeast copper chaperone) (yeast (Saccharomyces cerevisiae)), P38636; test: cross-linking; EGS (spacer arm 16.1 A), Cd(II) + DTT; products on SDS-PAGE; settings: remark: other sources report otherwise
T2 chain: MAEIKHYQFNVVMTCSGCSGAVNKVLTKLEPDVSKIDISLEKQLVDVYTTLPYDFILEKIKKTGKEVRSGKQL

[9] = target: T2, Atx1 (yeast copper chaperone) (yeast …); test: cross-linking; Hg(II) + DTT; DMS or EGS for ATOX1, EGS for Atx1; products on SDS-PAGE; settings: remark: other sources report otherwise
[10] = target: T2, Atx1 (yeast copper chaperone) (yeast …); test: SEC; Bio-Gel P-10 column (1.5 x 60 cm), 20 mM MES pH 6.0; reduced apoprotein (+DTT 3:1); 0.3, 0.5 and 0.3 mM ATOX1, C41S-ATOX1 and Atx1; size against myoglobin (18 kDa) and cytochrome C (12.5 kDa); settings: remark: other sources report otherwise
[11] = target: T2, Atx1 (yeast copper chaperone) (yeast …); test: SEC; Bio-Gel P-10 column (1.5 x 60 cm), 20 mM MES pH 6.0; Cd(II) complex (metal 1:1, DTT 3:1); 0.3, 0.5 and 0.3 mM ATOX1, C41S-ATOX1 and Atx1; size against myoglobin (18 kDa) and cytochrome C (12.5 kDa); settings: remark: other sources report otherwise

B1: ATOX1 (human copper chaperone), wild type, O00244 1-68 (natural protein)
chain: MPKHEFSVDMTCGGCAEAVSRVLNKLGGVKYDIDLPNKKVCIESEHSMDTLLATLKKTGKTVSYLGLE
B1 showed a stoichiometry N [1] of 2, a stoichiometry N [2] of 2 and a stoichiometry N [3] of 2. For the same binder, the stoichiometry N [4] was 3 and 4, the stoichiometry N [5] was 2 and the stoichiometry N [6] was 2.

B2: C41S-ATOX1 (natural protein, human, UniProt O00244 1-68, looked up)
chain: MPKHEFSVDMTCGGCAEAVSRVLNKLGGVKYDIDLPNKKVSIESEHSMDTLLATLKKTGKTVSYLGLE
notes: ATOX1 (HAH1), human copper chaperone, with the non-conserved Cys 41 mutated to Ser; Made on the ATOX1 construct in pGEX-6P-2 to imitate Atx1, which lacks this Cys; also called C41S-ATOXI; source: E. coli BL21 (DE3), GST fusion from pGEX-6P-2, purified, GST removed with PreScission protease; not shown: GST, N-terminal, cleaved
In the case of B2, the “stoichiometry N” value [7] is reported as 2.

B3: Atx1 (yeast copper chaperone), P38636 1-73 (natural protein)
chain: MAEIKHYQFNVVMTCSGCSGAVNKVLTKLEPDVSKIDISLEKQLVDVYTTLPYDFILEKIKKTGKEVRSGKQL
B3 was tested, and the stoichiometry N [8] was 2, the stoichiometry N [9] was 2 and the stoichiometry N [10] was 2. The stoichiometry N [11] was 2.
